Target: Recombinant human TNFα (R&D Systems) (human) (UniProt P01375)
Sequence (P01375 77-233 limits assumed): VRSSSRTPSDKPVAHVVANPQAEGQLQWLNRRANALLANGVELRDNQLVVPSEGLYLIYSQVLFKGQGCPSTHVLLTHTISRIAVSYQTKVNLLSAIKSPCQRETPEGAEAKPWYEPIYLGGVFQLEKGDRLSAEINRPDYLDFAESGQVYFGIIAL

IC50, inhibition of TNFα-induced Caspase 3 activity in U937 cells: 0.144 nM
Substance: etanercept (Fc fusion)

— patent publication US20240026036A1
